This note sets out measurements from US20140193400A1 (ESBATECH AN ALCON BIOMEDICAL RESEARCH UNIT, published 2014).

Where a chain is given by its changes, count along the chain named. Where “and” joins values, the source holds several entries; their conditions need not be identical. Equal entries are not always repeated. Where two headings read alike, the source gives them in different places.

A word on the Kd: it is the constant that tells how readily two partners part at equilibrium. Low readings indicate higher affinity, high ones lower affinity. By koff is commonly meant the first-order rate constant of dissociation. Low readings indicate slow dissociation, high ones fast dissociation. Usually kon stands for a measure of how fast the partners come together. High values mean faster complex formation, low ones slower complex formation.

Test [1] addresses T1, recombinant human TNFalpha (human, UniProt P01375 77-233). Nature of the test: cell-based or functional assay.
The target in test [2] is T2, Human TNFa N-his trimers (His-tagged TNF, produced at ESBATech) (human, UniProt P01375 77-233).
T2 construct: Captured as trimers on a Ni-NTA sensor chip by the N-terminal His tags in the Biacore assay of the general methods; also called human TNFα; human TNF alpha; not shown: N-terminal His tag
Nature of the test: SPR (BIAcore T100), His-tagged human TNF captured on NTA chip, scFv as analyte. How it is done: (§1) For binding affinity measurements at pH5 and pH 7.4 (data not shown), surface Plasmon resonance measurements with BIAcore™-T 100 were employed using a NTA sensor chip and His-tagged TNF (produced at ESBATech). The surface of the NTA sensor chip consists of a carboxymethylated dextran matrix pre-immobilized with nitrilotriacetic acid (NTA) for capture of histidine tagged molecules via Ni2+NTA chelation. Human TNFa N-his trimers (5 nM) are captured by the nickel via their N-terminal his-tags and ESBA105 (analyte) is injected at several concentrations ranging from 30 nM to 0.014 nM in 3 fold serial dilution steps. At the regeneration step, the complex formed by nickel, ligand and analyte is washed away. This allows the use of the same regeneration conditions for different samples. The response signal is generated by surface Plasmon resonance (SPR) technology and measured in resonance units (RU). All the measurements are performed at 25° C. Sensorgrams were generated for each anti-TNF scFv sample after in-line reference cell correction followed by buffer sample subtraction. The apparent dissociation rate constant (kd), the apparent association rate constant (kₐ) and the apparent dissociation equilibrium constant (KD) were calculated using one-to-one Langmuir binding model with BIAcore T100 evaluation Software version 1.1.
On the technique in general: In SPR one partner is held on a chip, and binding of the other changes the refractive index at the surface.

In test [3] the target is T1, recombinant human TNFalpha. Nature of the test: cell-based or functional assay. The source holds these as a separate data set.
Test [4] has as its target T1, recombinant human TNFalpha. Nature of the test: cell-based or functional assay. The source holds these as a separate data set.
The target in test [5] is T2, Human TNFa N-his trimers (His-tagged …). Nature of the test: SPR (BIAcore), His-tagged human TNF captured on NTA chip, scFv as analyte; units taken from paragraph 184. How it is done: as §1

T1 sequence (P01375 77-233 limits assumed): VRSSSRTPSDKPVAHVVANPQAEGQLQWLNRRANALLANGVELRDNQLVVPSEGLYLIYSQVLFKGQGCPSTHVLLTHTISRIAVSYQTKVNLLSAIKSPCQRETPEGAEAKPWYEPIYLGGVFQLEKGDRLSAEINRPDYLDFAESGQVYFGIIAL
T2 sequence (P01375 77-233 limits assumed): as above

B1: EP34_max (scFv)
scFv: EIVMTQSPSTLSASLGDRVIITCQSSQSVYGNIWMAWYQQKSGKAPKLLIYQASKLASGVPSRFSGSGSGAEFSLTISSLQPDDFATYYCQGNFNTGDRYAFGQGTKLTVLGGGGGSGGGGSGGGGSGGGGSEVQLVESGGGLVQPGGSLRLSCTASGFTISRSYWICWVRQAPGKGLEWVACIYGDNDITPLYANWAKGRFPVSTDTSKNTVYLQMNSLRAEDTAVYYCARLGYADYAYDLWGQGTLVTVSS
notes: scFv NH2-VL-(GGGGS)4-VH-COOH; also called Epi34max; 791
B1: the “L929* [EC50-E105/EC50-X], potency relative to ESBA105” value in test [1] is 10.5 ratio EC50 ESBA105/EC50 X (mass units, ng/ml). In test [2], this molecule yielded a Kd of 0.0286 nM, a koff of 1.68e-05 s⁻¹ and a kon of 586000 M⁻¹ s⁻¹. Also, in test [3], the “IC50, block of cytotoxic activity (human Kym-1 cells, 10 pg/ml TNF)” value is 0.69 ng/mL and 0.63 ng/mL; the “IC50, block of cytotoxic activity (murine L929 cells, 1000 pg/ml TNF)” value was 1.03 ng/mL and 1.04 ng/mL.

B2: EP6_min (scFv)
scFv: EIVMTQSPSTLSASVGDRVIITCQASESIYSGLAWYQQKPGKAPKLLIYQASTLASGVPSRFSGSGSGAEFTLTISSLQPDDFATYYCQQGFGTSNVENPFGQGTKLTVLGGGGGSGGGGSGGGGSGGGGSEVQLVESGGGLVQPGGSLRLSCAASGFSLSRYGVSWVRQAPGKGLEWVSTIGEAGRAYYANWARSRFTISRDNSKNTLYLQMNSLRAEDTAVYYCAKGEVFNNGWGAFNIWGQGTLVTVSS
notes: scFv NH2-VL-(GGGGS)4-VH-COOH; also called 673
As for B2, in test [2], the Kd came out at 106 nM, the koff was found to be 0.00494 s⁻¹ and the kon stood at 46700 M⁻¹ s⁻¹.

B3: EP15_min (scFv)
scFv: EIVMTQSPSTLSASVGDRVIITCQASENIYTSLAWYQQKPGKAPKLLIYSASTLASGVPSRFSGSGSGAEFTLTISSLQPDDFATYYCQQGFATSNVENPFGQGTKLTVLGGGGGSGGGGSGGGGSGGGGSEVQLVESGGGLVQPGGSLRLSCAASGFTFSRYGVSWVRQAPGKGLEWVSAIGETGRAYYANWAKSRFTISRDNSKNTLYLQMNSLRAEDTAVYYCAKGEEFNNGWGAFNIWGQGTLVTVSS
notes: scFv NH2-VL-(GGGGS)4-VH-COOH; also called 1073
In test [2], B3 displayed a dissociation constant Kd of 262 nM, a koff of 0.041 s⁻¹ and a kon of 157000 M⁻¹ s⁻¹.

B4: EP6_max (scFv)
scFv: B2 scFv with A69T, E70D, T74A, A154T, A155V, S180G, F198S, N204T, L209V, K228R
notes: scFv NH2-VL-(GGGGS)4-VH-COOH; also called 674
With B4, the “L929* [EC50-E105/EC50-X], potency relative to ESBA105” value in test [1] is 1.1 ratio EC50 ESBA105/EC50 X (mass units, ng/ml). For the same molecule, in test [2], the Kd is 0.512 nM, the koff is 0.000145 s⁻¹ and the kon stood at 284000 M⁻¹ s⁻¹.

B5: EP42_min (scFv)
scFv: EIVMTQSPSTLSASVGDRVIITCQSTESVYKNNYLAWYQQKPGKAPKLLIYDASTLASGVPSRFSGSGSGAEFTLTISSLQPDDFATYYCAGYYRSGFGTANGSFGQGTKLTVLGGGGGSGGGGSGGGGSGGGGSEVQLVESGGGLVQPGGSLRLSCAASGFTFRNDAISWVRQAPGKGLEWVSYISDWGIKYYASWVKGRFTISRDNSKNTLYLQMNSLRAEDTAVYYCAKGAPGAGDNGIWGQGTLVTVSS
notes: scFv NH2-VL-(GGGGS)4-VH-COOH; also called 1076
Take B5: in test [2], the Kd was determined as 58.7 nM, the koff turned out to be 0.00835 s⁻¹ and the kon came to 142000 M⁻¹ s⁻¹.

B6: EP43_maxDHP (scFv)
scFv: EIVMTQSPSTLSASVGDRVIIKCQASQSISDWLAWYQQKPGKAPKLLIYGASRLASGFPSRFSGSGSGAEFTLTISGLEPADFATYYCQQGWSDSYVDNLFGQGTKLTVLGGGGGSGGGGSGGGGSGGGGSEVQLVESGGGSVQPGGSLRLSCTVSGFSLSSGAMSWVRQAPGKGLEWVGVIISSGATYYASWAKGRFTISKDTSKNTVYLQMNSLRAEDTATYYCARGGPDDSNSMGTFDPWGQGTSVTVSS
Consider B6, for which, in test [4], the “L929* [EC50-E105/EC50-X], potency relative to ESBA105” value is 6.7 ratio EC50 ESBA105/EC50 X (mass units, ng/ml). In test [5], this molecule had a Kd of 0.116 nM, a koff of 2.73e-05 s⁻¹ and a kon of 235000 M⁻¹ s⁻¹.

B7: EP43_minmax (scFv)
scFv: B6 scFv with K22T, F58V, G77S, E79Q, A81D, S142L, T223V, S248L
notes: Min graft VL with max graft VH; also called 958
Consider B7, for which the “L929* [EC50-E105/EC50-X], potency relative to ESBA105” value in test [4] is 1.6 ratio EC50 ESBA105/EC50 X (mass units, ng/ml). In test [5], this molecule yielded a Kd of 0.868 nM, a koff of 0.000198 s⁻¹ and a kon of 228000 M⁻¹ s⁻¹.

B8: EP43_maxmin (scFv)
scFv: B6 scFv with S142L, T154A, V155A, G180S, K202R, T204N, V209L, T223V, R228K, S248L
notes: also called 959
As for B8, in test [5], the Kd stood at 36.6 nM, the koff worked out at 0.00533 s⁻¹ and the on-rate constant (kon) was 146000 M⁻¹ s⁻¹.

B9: EP43_min (scFv)
scFv: EIVMTQSPSTLSASVGDRVIITCQASQSISDWLAWYQQKPGKAPKLLIYGASRLASGVPSRFSGSGSGAEFTLTISSLQPDDFATYYCQQGWSDSYVDNLFGQGTKLTVLGGGGGSGGGGSGGGGSGGGGSEVQLVESGGGLVQPGGSLRLSCAASGFSLSSGAMSWVRQAPGKGLEWVSVIISSGATYYASWAKGRFTISRDNSKNTLYLQMNSLRAEDTAVYYCAKGGPDDSNSMGTFDPWGQGTLVTVSS
notes: scFv NH2-VL-(GGGGS)4-VH-COOH; also called 705
As for B9, in test [2], the Kd stood at 5540 nM, the koff came out at 0.0298 s⁻¹ and the kon turned out to be 5380 M⁻¹ s⁻¹.

B10: EP35_max (scFv)
scFv: EIVMTQSPSTLSASVGDRVIITCQASQSISNLLAWYQQKPGKAPKLLIVAASKLASGVPSRFSGSGSGTEFTLTISSLQPDDFATYYCQQGWSHTNVDNTFGQGTKLTVLGGGGGSGGGGSGGGGSGGGGSEVQLVESGGGSVQPGGSLRLSCTASGFSFSVGYWICWVRQAPGKGLEWVACIDAGTSGGTYYATWAKGRFTISKDTSKNTVYLQMNSLRAEDTATYYCARGVSSNGYYFKLWGQGTTVTVSS
notes: scFv NH2-VL-(GGGGS)4-VH-COOH; also called 1089
Take B10: the “L929* [EC50-E105/EC50-X], potency relative to ESBA105” value in test [1] is 5.2 ratio EC50 ESBA105/EC50 X (mass units, ng/ml). In test [2], this molecule registered a Kd of 0.194 nM, a koff of 0.00015 s⁻¹ and a kon of 772000 M⁻¹ s⁻¹.

B11: EP15_max (scFv)
scFv: EIVMTQSPSTLSASVGDRVIITCQASENIYTSLAWYQQKPGKAPKLLIYSASTLASGVPSRFSGSGSGTEFTLTISSLQPDDFATYYCQQGFATSNVENPFGQGTKLTVLGGGGGSGGGGSGGGGSGGGGSEVQLVESGGGSVQPGGSLRLSCTVSGFSLSRYGVSWVRQAPGKGLEWVGAIGETGRAYYANWAKSRSTISRDTSKNTVYLQMNSLRAEDTATYYCARGEEFNNGWGAFNIWGQGTTVTVSS
notes: scFv NH2-VL-(GGGGS)4-VH-COOH; also called 1074
Regarding B11, the “L929* [EC50-E105/EC50-X], potency relative to ESBA105” value in test [1] was 0.39 ratio EC50 ESBA105/EC50 X (mass units, ng/ml). In test [2], this molecule displayed a Kd of 1.48 nM, a koff of 0.00226 s⁻¹ and a kon of 1.53e+06 M⁻¹ s⁻¹.

B12: EP19_max (scFv)
scFv: EIVMTQSPSTLSASVGDRVIITCQASDNIYRGLAWYQQKPGKAPKLLIYDASTLQSGVPSRFSGSGSGTQFTLTISSLQPDDFATYYCLGVYGYSSDDGAAFGQGTKLTVLGGGGGSGGGGSGGGGSGGGGSEVQLVESGGGLVQPGGSLRLSCTVSGFSLNSNEISWVRQAPGKGLEWVGYIGNGGMTHYASWAKGRFTISRDTSKNTVYLQMNSLRAEDTAVYYCASSVEYTDLYYLNIWGQGTLVTVSS
notes: also called 1007; EP19maxmod
As to B12, the “L929* [EC50-E105/EC50-X], potency relative to ESBA105” value in test [1] was 0.6 ratio EC50 ESBA105/EC50 X (mass units, ng/ml). For the same molecule, in test [2], the Kd is 2.91 nM, the koff is 6.54e-05 s⁻¹ and the kon is 22500 M⁻¹ s⁻¹.

B13: EP1_max (scFv)
scFv: EIVMTQSPSTLSASVGDRVIITCQSTESVYKNNYLAWYQQKPGKAPKLLIYDASTLASGVPSRFSGSGSGTEFTLTISSLQPDDFATYYCAGYYRSGSGTANGSFGQGTKLTVLGGGGGSGGGGSGGGGSGGGGSEVQLVESGGGSVQPGGSLRLSCTVSGIDLSNDAISWVRQAPGKGLEWVAYISDWSIRYYANWAQGRFTISKDTSKNTVYLQMNSLRAEDTATYYCARGAPGAGDNGIWGQGTTVTVSS
notes: scFv NH2-VL-(GGGGS)4-VH-COOH; also called 1072
Turning to B13, in test [2], the affinity, expressed as Kd, was 56.9 nM; the koff was 0.00063 s⁻¹; the kon turned out to be 11100 M⁻¹ s⁻¹.

B14: EP42_max (scFv)
scFv: B13 scFv with S98F, S165R, A184S, S190G, R192K, N196S, A198V, Q199K
notes: scFv NH2-VL-(GGGGS)4-VH-COOH; also called 1077
Take B14: in test [2], binding was put at a Kd of 3.46 nM, the koff is 0.000419 s⁻¹ and the kon came to 121000 M⁻¹ s⁻¹.

B15: ESBA105 (scFv)
chain: MADIVMTQSPSSLSASVGDRVTLTCTASQSVSNDVVWYQQRPGKAPKLLIYSAFNRYTGVPSRFSGRGYGTDFTLTISSLQPEDVAVYYCQQDYNSPRTFGQGTKLEVKRGGGGSGGGGSGGGGSSGGGSQVQLVQSGAEVKKPGASVKVSCTASGYTFTHYGMNWVRQAPGKGLEWMGWINTYTGEPTYADKFKDRFTFSLETSASTVYMELTSLTSDDTAVYYCARERGDAMDYWGQGTLVTVSS
Consider B15, for which the “EC50, L929 potency assay” value in test [3] is 6.5 ng/mL.
